The record followed here is US20210196823A1, “Methods of Treating Metabolic Disease” (Pfizer Inc., priority 2018, published 2021).

For one test, the system named is Huh7 cells. The test is described as follows: Gene expression microarray of Huh7 cells treated with ERFE. In kind it is cell-based. Conditions: Huh7, ERFE 10 μg/ml, 24 h. The method, then:
(b) Gene expression microarray: Microarray analysis of Huh7 cells treated with mouse or human erythroferrone was carried out to test the activity of erythroferrone on the BMP/SMAD signalling pathway. Generally cell treatments were carried out according to the following protocol: Huh7 and HepG2 were cultured in Dulbecco's Modified Eagle's Medium—High Glucose (Sigma), supplemented with 10% Fetal Bovine Serum (Sigma), 1% Penicillin-Streptomycin (Sigma) and 1% L-Glutamine (Sigma), unless otherwise indicated. Cells were plated 24 h before treatments in 24-well (gene expression analysis) or 12-well (protein analysis) cell culture plates. At the time of treatment, cells were washed with PBS and fresh media was added.
For the purposes of gene expression microarray analysis RNA was isolated from the Huh7 cells using RNeasy Plus kit (Qiagen), this was followed by RNA quantification and quality assessment using a 2100 Bioanalyzer (Agilent). RNA was converted into biotin labelled cRNA for hybridization and gene expression analysed using the Human HT12v4.0 Expression Beadchip (Illumina) and the Illuminas's iScan Scanner. Raw data was normalised using the lumi package (Bioconductor) and compared using LIMMA (Bioconductor). Statistical significance was set at p<0.05.

The next test has as its system C2C12 Bre-Luc cells. The test is described as follows: BMP/SMAD signalling output in C2C12 Bre-Luc cells. The test is classed as cell-based. The conditions noted are these: 24 h. The method, then: As HAMP can be stimulated by a variety of ligands, we further tested the effect of ERFE in cells treated with various BMPs by measuring BMP/SMAD signalling output in C2C12 Bre-Luc cells. C2C12 Bre-Luc cells were treated with 2 nM of BMP in combination with a gradient of mouse ERFE concentrations (7.5 pM to 0.5 μM) for 24 h, and luminescence measured in each well. […] Analogous data confirmed suppression of HAMP and ID1 in cells treated with ERFE and BMP 2/6, BMP5, BMP6 and BMP7, FIG. 3F.
The inhibitory effect of EFE on selected BMPs was tested in-vitro in three different cell types, C2C12, Huh7 and HepG2. Huh7 (FIG. 3G, 3H) and HepG2 (FIGS. 3J, 3K) cells were treated with 2 nM of BMPs, alone or in combination with 10 μg/ml of mouse ERFE, in serum-free media, and analysed 6 h after treatment. Gene expression of HAMP and ID1 was measured by qRT-PCR. Results expressed as fold change relative to non-treated cells from 3 independent experiments. Statistical significance was analysed for each pair of BMP treatments. (*p<0.05, **p<0.01, ***p<0.001, ****p<0.0001, Student's t test). Additionally we tested the effect of ERFE in cells treated with various BMPs by measuring BMP/SMAD signalling output in C2C12 Bre-Luc cells (FIG. 3E). C2C12 Bre-Luc cells were treated with 2 nM of BMP in combination with a gradient of mouse ERFE concentrations (7.5 pM to 0.5 μM) for 24 h, and luminescence measured in each well.

B1: mouse ERFE: recombinant mouse erythroferrone (SEQ ID NO: 2); monoFC-muErfe is a monomeric FC murine ERFE fusion (protein, listed as Mus musculus)
chain: MASRRPVGARTLLACASLLAAMGLGVPESAEPVGTHARPQPPGAELPAPPANSPPEPIAHAHSVDPRDAWMLFVKQSDKGINSKRRSKARRLKLGLPGPPGPPGPQGPPGPFIPSEVLLKEFQLLLKGAVRQRESHLEHCTRDLPASGSPSRVPAAQELDSQDPGALLALLAATLAQGPRAPRVEAAFHCRLRRDVQVDRRALHELGIYYLPEVEGAFHRGPGLNLTSGQYTAPVAGFYALAATLHVALTEQPRKGPTRPRDRLRLLICIQSLCQHNASLETVMGLENSSELFISVNGVLYLQAGHYSVFLDNASGSSLTVRSGSHFSAILLGL
Regarding B1, the “target genes of the JAK/STAT3 pathway” value in the test on Huh7 cells was “No changes”. Besides, the “number of suppressed genes” value in the test with Huh7 cells (5 are BMP/SMAD targets ID1, ID2, ID3, SMAD6, HAMP) amounted to 12. In addition, in the test on C2C12 Bre-Luc cells (2 nM BMP2, mouse ERFE 7.5 pM to 0.5 μM), the “BMP2 activity (luminescence)” value is reported as “no effect”. Moreover, in the test on C2C12 Bre-Luc cells (2 nM BMP4, mouse ERFE 7.5 pM to 0.5 μM), the “BMP4 activity (luminescence)” value is reported as “no effect”. In addition, in the test with C2C12 Bre-Luc cells (2 nM BMP5, mouse ERFE 7.5 pM to 0.5 μM), the “activation of BMP signalling by BMP5 (luminescence)” value is “dose-dependent decrease”. In addition, in the test on C2C12 Bre-Luc cells (2 nM BMP6, mouse ERFE 7.5 pM to 0.5 μM), the “activation of BMP signalling by BMP6 (luminescence)” value was “dose-dependent decrease”. Besides, the “activation of BMP signalling by BMP7 (luminescence)” value in the test with C2C12 Bre-Luc cells (2 nM BMP7, mouse ERFE 7.5 pM to 0.5 μM) was “dose-dependent decrease”. Further, the “BMP9 activity (luminescence)” value in the test on C2C12 Bre-Luc cells (2 nM BMP9, mouse ERFE 7.5 pM to 0.5 μM) is listed as “no effect”.
